According to article PMC10397247:

Columns and labels:
4H687-AA = molecular target: T1, 4H687-AA; test: two-hybrid library CCmax; settings: mean of both orientations;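 also: natural log of median RNA to DNA barcode read ratio; higher means stronger binding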
T1 chain: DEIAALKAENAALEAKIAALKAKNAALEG

4H953-AA = molecular target: T2, 4H953-AA; test: two-hybrid library CCmax; settings: mean of both orientations;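 also: natural log of median RNA to DNA barcode read ratio; higher means stronger binding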
T2 chain: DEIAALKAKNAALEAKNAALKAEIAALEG

4H568-AA = molecular target: T3, 4H568-AA; test: two-hybrid library CCmax; settings: mean of both orientations;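 also: natural log of median RNA to DNA barcode read ratio; higher means stronger binding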
T3 chain: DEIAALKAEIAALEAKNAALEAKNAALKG

4H717-AA = molecular target: T4, 4H717-AA; test: two-hybrid library CCmax; settings: mean of both orientations;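 also: natural log of median RNA to DNA barcode read ratio; higher means stronger binding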
T4 chain: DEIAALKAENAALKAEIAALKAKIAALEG

4H4001-AA = molecular target: T5, 4H4001-AA; test: two-hybrid library CCmax;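 also: natural log of median RNA to DNA barcode read ratio; higher means stronger binding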
T5 chain: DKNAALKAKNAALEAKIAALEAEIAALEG

4H918-AA = molecular target: T6, 4H918-AA; test: two-hybrid library CCmax; settings: mean of both orientations;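 also: natural log of median RNA to DNA barcode read ratio; higher means stronger binding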
T6 chain: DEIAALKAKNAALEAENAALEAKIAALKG

4H797-AA = molecular target: T7, 4H797-AA; test: two-hybrid library CCmax; settings: mean of both orientations
T7 chain: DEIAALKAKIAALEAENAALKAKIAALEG

4H967-AA = molecular target: T8, 4H967-AA; test: two-hybrid library CCmax; settings: mean of both orientations
T8 chain: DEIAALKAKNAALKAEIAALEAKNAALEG

4H883-AA = molecular target: T9, 4H883-AA; test: two-hybrid library CCmax; settings: mean of both orientations
T9 chain: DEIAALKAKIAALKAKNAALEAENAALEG

4H2702-bH = molecular target: T10, 4H2702-bH; test: two-hybrid library CCNG1
T10 chain: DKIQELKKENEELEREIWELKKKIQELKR

4H754-bH = molecular target: T11, 4H754-bH; test: two-hybrid library CCNG1
T11 chain: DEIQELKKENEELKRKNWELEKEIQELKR

4H968-bH = molecular target: T12, 4H968-bH; test: two-hybrid library CCNG1
T12 chain: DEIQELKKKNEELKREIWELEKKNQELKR

4H3010-bH = molecular target: T13, 4H3010-bH; test: two-hybrid library CCNG1
T13 chain: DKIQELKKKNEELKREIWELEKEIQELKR

4H918-bH = molecular target: T14, 4H918-bH; test: two-hybrid library CCNG1
T14 chain: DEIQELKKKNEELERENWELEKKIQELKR

4H3112-bH = molecular target: T15, 4H3112-bH; test: two-hybrid library CCNG1
T15 chain: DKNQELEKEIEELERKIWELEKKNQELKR

4H953-bH = molecular target: T16, 4H953-bH; test: two-hybrid library CCNG1
T16 chain: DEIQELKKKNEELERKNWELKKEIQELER

4H855-bH = molecular target: T17, 4H855-bH; test: two-hybrid library CCNG1
T17 chain: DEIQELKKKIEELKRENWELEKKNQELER

4H4073-bH = molecular target: T18, 4H4073-bH; test: two-hybrid library CCNG1
T18 chain: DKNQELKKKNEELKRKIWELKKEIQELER

4H457-bH = molecular target: T19, 4H457-bH; test: two-hybrid library CCNG1
T19 chain: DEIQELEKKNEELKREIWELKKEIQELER

4H346-bH = molecular target: T20, 4H346-bH; test: two-hybrid library CCNG1
T20 chain: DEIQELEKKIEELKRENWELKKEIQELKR

4H3926-bH = molecular target: T21, 4H3926-bH; test: two-hybrid library CCNG1
T21 chain: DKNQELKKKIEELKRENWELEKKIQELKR

4H797-bH = molecular target: T22, 4H797-bH; test: two-hybrid library CCNG1
T22 chain: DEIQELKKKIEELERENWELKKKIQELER

4H683-bH = molecular target: T23, 4H683-bH; test: two-hybrid library CCNG1
T23 chain: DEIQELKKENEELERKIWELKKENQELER

4H3427-bH = molecular target: T24, 4H3427-bH; test: two-hybrid library CCNG1
T24 chain: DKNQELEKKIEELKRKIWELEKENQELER

4H575-bH = molecular target: T25, 4H575-bH; test: two-hybrid library CCNG1
T25 chain: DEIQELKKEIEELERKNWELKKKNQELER

4H780-bH = molecular target: T26, 4H780-bH; test: two-hybrid library CCNG1
T26 chain: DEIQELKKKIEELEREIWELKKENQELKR

4H570-bA = molecular target: T27, 4H570-bA; test: two-hybrid library CCNG1
T27 chain: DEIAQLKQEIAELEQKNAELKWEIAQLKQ

4H584-bA = molecular target: T28, 4H584-bA; test: two-hybrid library CCNG1
T28 chain: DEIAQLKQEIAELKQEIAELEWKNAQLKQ

4H3817-bA = molecular target: T29, 4H3817-bA; test: two-hybrid library CCNG1
T29 chain: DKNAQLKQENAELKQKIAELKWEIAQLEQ

4H3631-bA = molecular target: T30, 4H3631-bA; test: two-hybrid library CCNG1
T30 chain: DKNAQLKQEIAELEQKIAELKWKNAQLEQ

4H619-bA = molecular target: T31, 4H619-bA; test: two-hybrid library CCNG1
T31 chain: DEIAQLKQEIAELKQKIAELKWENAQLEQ

4H3638-bA = molecular target: T32, 4H3638-bA; test: two-hybrid library CCNG1
T32 chain: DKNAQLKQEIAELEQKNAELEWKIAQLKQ

4H850-bA = molecular target: T33, 4H850-bA; test: two-hybrid library CCNG1
T33 chain: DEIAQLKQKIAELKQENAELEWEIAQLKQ

4H906-bA = molecular target: T34, 4H906-bA; test: two-hybrid library CCNG1
T34 chain: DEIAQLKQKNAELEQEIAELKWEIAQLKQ

4H3974-bA = molecular target: T35, 4H3974-bA; test: two-hybrid library CCNG1
T35 chain: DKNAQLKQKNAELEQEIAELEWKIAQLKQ

4H3172-bA = molecular target: T36, 4H3172-bA; test: two-hybrid library CCNG1
T36 chain: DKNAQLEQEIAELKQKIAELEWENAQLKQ

4H3414-bA = molecular target: T37, 4H3414-bA; test: two-hybrid library CCNG1
T37 chain: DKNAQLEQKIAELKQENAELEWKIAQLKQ

P7bHq = molecular target: T38, P7bHq; test: two-hybrid library CCNG1
T38 chain: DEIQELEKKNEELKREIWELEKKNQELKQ

P9bHq = molecular target: T39, P9bHq; test: two-hybrid library CCNG1
T39 chain: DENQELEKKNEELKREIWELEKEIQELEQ

P6bHq = molecular target: T40, P6bHq; test: two-hybrid library CCNG1
T40 chain: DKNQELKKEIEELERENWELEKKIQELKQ

P8bHq = molecular target: T41, P8bHq; test: two-hybrid library CCNG1
T41 chain: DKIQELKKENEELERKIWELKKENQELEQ

Binder: DKNAALKAKNAALEAKIAALEAEIAALEG [4H4001-AA]
- interaction score (4H687-AA): -2.04
- interaction score (4H953-AA): -1.79
- interaction score (4H568-AA): -1.85
- interaction score (4H717-AA): -1.32
- interaction score (4H4001-AA): -1.19
- interaction score (4H918-AA): -0.824
- interaction score (4H797-AA): -1.79
- interaction score (4H967-AA): -1.57
- interaction score (4H883-AA): -1.75

Binder: DKIQELKKENEELEREIWELKKKIQELKR [4H2702-bH]
- interaction score (4H2702-bH): 1.55
- interaction score (4H754-bH): -0.588
- interaction score (4H968-bH): 0.8
- interaction score (4H3010-bH): 1.37
- interaction score (4H918-bH): -0.77
- interaction score (4H3112-bH): 0.549
- interaction score (4H953-bH): 0.896
- interaction score (4H855-bH): -0.0377
- interaction score (4H4073-bH): 0.92
- interaction score (4H457-bH): 1.57
- interaction score (4H346-bH): 0.405
- interaction score (4H3926-bH): 0.525
- interaction score (4H797-bH): -0.247
- interaction score (4H683-bH): -0.558
- interaction score (4H3427-bH): 0.468
- interaction score (4H575-bH): -2.01
- interaction score (4H780-bH): -0.871

Binder: DKNAQLEQEIAELKQKIAELEWENAQLKQ [4H3172-bA]
- interaction score (4H570-bA): -1.11
- interaction score (4H584-bA): -0.867
- interaction score (4H3817-bA): -0.291
- interaction score (4H3631-bA): 0.247
- interaction score (4H619-bA): -0.797
- interaction score (4H3638-bA): -0.395
- interaction score (4H850-bA): -0.244
- interaction score (4H906-bA): -0.0855
- interaction score (4H3974-bA): 0.174
- interaction score (4H3172-bA): 1.36
- interaction score (4H3414-bA): -0.273

Binder: DKNQELKKEIEELERENWELEKKIQELKQ [P6bHq]
- interaction score (P7bHq): 0.113
- interaction score (P9bHq): -0.205
- interaction score (P6bHq): 1.03
- interaction score (P8bHq): 1
